Laboratory results taken from paper PMC4869151 (ACS Infectious Diseases, 2016).

Columns and labels:
[1] = molecular target: T1, recombinant HAstV-2 capsid protein (Human astrovirus 2 (HAstV-2), entry …, UniProt Q82446, strain); experiment: pull-down
[2] = molecular target: T1, recombinant HAstV-2 capsid protein; experiment: ELISA

Row | Binder | binding result [1] | binding result [2]
1 | recombinant single-chain variable fragment of the PL-2 antibody (scFv, V domains shown) VH: DVQLKQSGPGLVQPSQSLSITCTVSGFSLIDYGVHWVRQSPGKGLEWLGVIWTGGSTDYNAAFISRLTISKDNSKSQVFFKMNSLQANDTGIYYCGRPYYGNVMDYWGQGTSVTVSS VL: DIQMTQTTSSLSASLGDRVTISCRASQDISNYLNWYQQKPDGTVKLLIYYTSRLHSGVPSRFSGSGSGTDYSLTISNLEQEDIATYFCQQGNTFPPTFGGGTKLEIK | binds | 
2 | monoclonal antibody PL-2 (antibody, V domains shown) VH: DVQLKQSGPGLVQPSQSLSITCTVSGFSLIDYGVHWVRQSPGKGLEWLGVIWTGGSTDYNAAFISRLTISKDNSKSQVFFKMNSLQANDTGIYYCGRPYYGNVMDYWGQGTSVTVSS VL: DIQMTQTTSSLSASLGDRVTISCRASQDISNYLNWYQQKPDGTVKLLIYYTSRLHSGVPSRFSGSGSGTDYSLTISNLEQEDIATYFCQQGNTFPPTFGGGTKLEIK |  | binds
